In patent publication US20240082434A1 one finds decrease of binding against unPEGylated CA1.CD2 data, which are given here for one substance.

In the assay the target is CA1.CD2 PEGylated with P40 (rat). Put plainly: Western blot; PEGylated (P40) against unmodified CA1.CD2.

In the case of antibody OX34, the decrease of binding against unPEGylated CA1.CD2 came to 50%.
